From paper PMC4598300

Target: tag-free PTEN (human) (UniProt P60484)
Assay: SEC-SAXS

A stoichiometry N of 2 was found for “tag-free PTEN, P60484 1-403 (enzyme; other documents disagree on this pair)” in this work.
